{
  "source": "paper PMC3812903",
  "about": "(Biochemistry, 2013)",
  "key": {"[1]": {"molecular_target": "NarJ", "conditions": "cited from earlier work"}, "[2]": {"molecular_target": "DmsD (Escherichia coli) (UniProt P69853)", "conditions": "cited from earlier work"}, "[3]": {"molecular_target": "DmsD (Escherichia coli) (UniProt P69853)", "conditions": "cited from earlier work", "remark": "listed apart in the source"}, "[4]": {"molecular_target": "DmsD (His6T7::DmsD construct) (E. coli) (UniProt P69853)", "assay": "ITC"}, "[5]": {"molecular_target": "DmsAL15-41 (DmsA twin-arginine leader peptide, residues 15-41) (UniProt P18775)", "assay": "ITC", "conditions": "pH 8.0; 30 °C (303.15 K); 100 mM NaCl; 25 mM Tris-HCl (pH 8.0)"}, "[6]": {"molecular_target": "DmsAL15-41 KK (DmsA leader peptide residues 15-41, twin arginines changed to lysines) R16K;R17K (UniProt P18775)", "assay": "ITC", "conditions": "pH 8.0; 30 °C (303.15 K); 100 mM NaCl; 25 mM Tris-HCl (pH 8.0)"}, "[7]": {"molecular_target": "DmsAL17-41 (DmsA twin-arginine leader peptide, residues 17-41) (UniProt P18775)", "assay": "ITC", "conditions": "pH 8.0; 30 °C (303.15 K); 100 mM NaCl; 25 mM Tris-HCl (pH 8.0)"}, "[8]": {"molecular_target": "DmsAL21-41 (DmsA twin-arginine leader peptide, residues 21-41) (UniProt P18775)", "assay": "ITC", "conditions": "pH 8.0; 30 °C (303.15 K); 100 mM NaCl; 25 mM Tris-HCl (pH 8.0)"}, "[9]": {"molecular_target": "NarJ (Escherichia coli) (UniProt P0AF26)", "sequence (P0AF26 whole entry)": "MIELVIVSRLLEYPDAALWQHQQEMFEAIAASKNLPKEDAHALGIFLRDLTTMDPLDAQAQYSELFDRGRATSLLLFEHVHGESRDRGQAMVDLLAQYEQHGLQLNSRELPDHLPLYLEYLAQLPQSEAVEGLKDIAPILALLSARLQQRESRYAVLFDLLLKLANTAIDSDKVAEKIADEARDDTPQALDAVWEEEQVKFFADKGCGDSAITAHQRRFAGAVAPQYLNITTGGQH", "conditions": "cited from earlier work"}, "[10]": {"molecular_target": "TorD (Escherichia coli) (UniProt P36662)", "sequence (P36662 whole entry)": "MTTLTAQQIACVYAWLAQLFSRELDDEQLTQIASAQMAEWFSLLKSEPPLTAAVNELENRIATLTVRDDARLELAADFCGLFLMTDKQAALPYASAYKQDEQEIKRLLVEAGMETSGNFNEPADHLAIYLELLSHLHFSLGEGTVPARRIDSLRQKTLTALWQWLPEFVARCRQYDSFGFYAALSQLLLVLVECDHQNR", "conditions": "cited from earlier work"}},
  "note": "Where two headings read alike, the source gives them in different places.",
  "data": [
    {"substance": "15 N-terminal residues of NarG: 15 amino-terminal residues of NarG, contain a remnant RR motif (MSKFLDRFRYFKQKG; UniProt P09152 1-15, looked up, fragment)", "values": [
      {"measurement": "Kd", "setting": "[1]", "result": "~0.1", "unit": "µM"}
    ]},
    {"substance": "DmsA leader peptide 1-43 (from UniProt P18775)", "values": [
      {"measurement": "Kd", "setting": "[2]", "result": 0.06, "unit": "µM"},
      {"measurement": "Kd", "setting": "[3]", "result": 0.2, "unit": "µM"}
    ]},
    {"substance": "DmsAL_(15–41 KK) (from UniProt P18775 15-41) (peptide)", "values": [
      {"measurement": "Kd", "setting": "[4]", "result": 2.9, "unit": "µM"},
      {"measurement": "stoichiometry N", "setting": "[4]", "result": 1.09}
    ]},
    {"substance": "DmsAL_(15–41) (from UniProt P18775 15-41) (peptide)", "values": [
      {"measurement": "Ka", "setting": "[4]", "result": 600000, "unit": "M⁻¹"},
      {"measurement": "Kd", "setting": "[4]", "result": 1.7, "unit": "µM"},
      {"measurement": "dH", "setting": "[4]", "result": -11.7, "unit": "kcal/mol"},
      {"measurement": "stoichiometry N", "setting": "[4]", "result": 1.04}
    ]},
    {"substance": "DmsAL_(17–41) (from UniProt P18775 17-41) (peptide)", "values": [
      {"measurement": "Kd", "setting": "[4]", "result": 2.1, "unit": "µM"},
      {"measurement": "dH", "setting": "[4]", "result": -9.5, "unit": "kcal/mol"},
      {"measurement": "stoichiometry N", "setting": "[4]", "result": 1.04}
    ]},
    {"substance": "DmsAL_(21–41) (from UniProt P18775 21-41) (peptide)", "values": [
      {"measurement": "Ka", "setting": "[4]", "result": 260000, "unit": "M⁻¹"},
      {"measurement": "Kd", "setting": "[4]", "result": 3.9, "unit": "µM"},
      {"measurement": "dH", "setting": "[4]", "result": -4.3, "unit": "kcal/mol"},
      {"measurement": "stoichiometry N", "setting": "[4]", "result": 1.14}
    ]},
    {"substance": "DmsD (Tat proofreading chaperone / redox enzyme maturation protein)", "values": [
      {"measurement": "ΔH (apparent, Tris)", "setting": "[5]", "result": -11.7, "unit": "kcal/mol"},
      {"measurement": "ΔH (apparent, Tris)", "setting": "[6]", "result": -10, "unit": "kcal/mol"},
      {"measurement": "ΔH (apparent, Tris)", "setting": "[7]", "result": -9.5, "unit": "kcal/mol"},
      {"measurement": "ΔH (apparent, Tris)", "setting": "[8]", "result": -4.3, "unit": "kcal/mol"}
    ]},
    {"substance": "NarG N-terminal peptide 1-15 (from UniProt P09152)", "values": [
      {"measurement": "Kd", "setting": "[9]", "result": 0.1, "unit": "µM"}
    ]},
    {"substance": "TorA leader peptide (from UniProt P33225)", "values": [
      {"measurement": "Kd", "setting": "[10]", "result": 1.8, "unit": "µM"}
    ]}
  ]
}
